Source: paper PMC8205527, “Structural basis for the coiled-coil architecture of human CtIP” (Open Biology, 2021)

Target: the molecule itself
Experiment: SEC-SAXS; Superdex 200 Increase 3.2/300 in 20 mM Tris HCl 8.0, 300 mM NaCl; protein at 3–10 mg/ml; Guinier analysis, P(r), MONSA and BilboMD modelling

B1: CtIP-NTD (18–145) (domain or fragment, human, UniProt Q99708 18-145, looked up)
chain: SDFKDLWTKLKECHDREVQGLQVKVTKLKQERILDAQRLEEFFTKNQQLREQQKVLHETIKVLEDRLRAGLCDRCAVTEEHMRKKQQEFENIRQQNLKLITELMNERNTLQEENKKLSEQLQQKIEND
notes: also called CtIP N-terminal domain; source: E. coli BL21(DE3) Rosetta 2, purified (Ni-NTA, TEV cleavage, Strep-Tactin, SEC); not shown: His6, N-terminal, cleaved; MBP, N-terminal, cleaved
With B1 the “stoichiometry N” value was 4.

B2: CtIP-cNTD 31–145 (wild type) (domain or fragment, human, UniProt Q99708 31-145, looked up)
chain: HDREVQGLQVKVTKLKQERILDAQRLEEFFTKNQQLREQQKVLHETIKVLEDRLRAGLCDRCAVTEEHMRKKQQEFENIRQQNLKLITELMNERNTLQEENKKLSEQLQQKIEND
notes: also called wild-type CtIP-cNTD; C-terminal NTD; source: E. coli BL21(DE3) Rosetta 2, purified (Ni-NTA, TEV cleavage, Strep-Tactin, SEC); not shown: His6, N-terminal, cleaved; MBP, N-terminal, cleaved
With B2 the “stoichiometry N” value was 2.
